Measurements taken from the supplement of paper PMC9170038.

System: MS2 coat protein
Assay: apparent KD of MS2 coat protein; designed switch direction (-1 OFF switch, 1 ON switch): -1; higher = weaker reporter binding
Method in brief: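 Apparent KD, taken as the median over clusters for each design, was obtained by curve-fitting normalised cluster fluorescence. Designed RNA switches had been transcribed on Illumina chips by stalled E. coli RNA polymerase and titrated with SNAP-549-labelled MS2 coat protein, doubling from 0.7 or 1.5 nM to 3 µM.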

[1] = Eterna round: R95, input ligand: FMN 200 uM
[2] = Eterna round: R95, input ligand: microRNA oligo, concentration not stated
[3] = Eterna round: R95, input ligand: none
[4] = input ligand: microRNA oligo, concentration not stated

| Sequence | apparent KD of MS2 coat protein (input ligand: FMN 200 uM) [nM] | apparent KD of MS2 coat protein (input ligand: none) [nM] | apparent KD of MS2 coat protein [1] [nM] | apparent KD of MS2 coat protein [2] [nM] | apparent KD of MS2 coat protein [3] [nM] | apparent KD of MS2 coat protein [4] [nM] |
| --- | --- | --- | --- | --- | --- | --- |
| AAAAAAAAAGUGAGGAUAUGCUCUACCUCGGUAGAGCAGAAGGCACAUGAGGAUCACCCAUGUGACUCCUCAUU [Omei Ex4B B25] (Eterna round: R97, puzzle: Brourd's mod of Exclusion 4) | 29.6 | 19.1 | – | – | – | – |
| AAAAAACAAGGAUAUACGAAGGAGGGUUAUCUUAAUUUUUGACAUGAGGAUCACCCAUGUAGAAGGUGUUAAAA [JR_Exclusion2_Sub011] (puzzle: Exclusion 2) | – | – | 571 | 202 | 156 | – |
| AAAAAACAAGGAUAUACGGAUGAAGAUUGUCUUAAUUUUUGACAUGAGGAUCACCCAUGUAGAAGGUGUUAAAA [JR_Exclusion2_Sub016] (puzzle: Exclusion 2) | – | – | – | 158 | – | – |
| AAAAAGGUAGGAUAUACGAAAAAAAAGGGUAGAAAAAAAACACAUGAGGAUCACCCAUGUAGAAGGACCAAAAA [salish99_ex2_r3_043] (puzzle: Exclusion 2) | – | – | 97.3 | 26.8 | 26.1 | – |
| AAAAAGUGAGGAUAUGCAUAAGGACCCGGGAGGGAAAUAAAACAUGAGGAUCACCCAUGUAGAAGGCGCAAAAA [Exclss2-II] (puzzle: Exclusion 2) | – | – | 17.2 | 16 | 15.7 | – |
| AAAACGUGAGCAGGAUAUGCAAUAAGAUCAGGUCUUCACAUGAGGAUCACCCAUGUAUAAGGGACGCAGAAGGGCUGAUAAAAG [Aesedat] (Eterna round: R96, puzzle: Exclusion NG 2) | 98.4 | 60.9 | – | – | – | 49.6 |
| AAAAGAACAUGAGGAUCACCCAUGUGAACCUUCGUUCGACCUCAGGAUAUCCGCCACCGUCCGCAGGAGAAGGGAGGUAAAAUA [Quraa] (Eterna round: R96, puzzle: Exclusion NG 3) | 169 | 58.8 | – | – | – | 45.6 |
| AAAAGAAGUGUUAGGAUAUGUGGAAGCAGAAAGACACAGAAGGAACAUGAGGAUCACCCAUGUGACCAAAGAAC [Maenonis] (puzzle: Brourd's mod of Exclusion 4) | – | – | 27.1 | 15.8 | 15.3 | – |
| AAAAGCCUAGGAUAUACUUGAGGAUCACCCAAGUAGGGUCGCAUGGACCCGUCCUCGUGUAGAAGGAGGAAAAG [Orreteceer] (Eterna round: R97, puzzle: Exclusion 3) | 108 | 46.7 | – | – | – | – |
| AAAAGGCUAGGAUAUACAUGAGGAUCACCCAUGUGUACUGGACAUGCGGUAUGCGGAUGUAGAAGGAGUAUAAA [Esrere] (puzzle: Exclusion 3) | – | – | – | 22.4 | – | – |
| AAAAGGUCAGGAUAUCGGCGCGGUUGGGAGGCAGGUCCGCGCGAGAAGGGACAUGAGGAUCACCCAUGUUAAAA [Excls4-III] (puzzle: Exclusion 4) | – | – | – | 20.7 | – | – |
| AAAAGUUAAGGAUAUACAGGGAGCCGCGGCGUCUGGCCGCAACAUGAGGAUCACCCAUGUAGAAGGUAGCCAAA [Maatmaso] (puzzle: Exclusion 2) | – | – | 61.5 | 20.6 | 30.5 | – |
| AAAAUGGCAGGAUAUACAUGAGGAUCACCCAUGUUCGUCUUUACAUGUAAAAUGCUCUGUAGAAGGGCCUCGAA [Quised] (Eterna round: R97, puzzle: Exclusion 3) | 47.1 | 21.9 | – | – | – | – |
| AAAAUGUAAGGAUAUAGCCGGAACAAAGGGUCAAUAACCGGCUAGAAGGUACAUGAGGAUCACCCAUGUAAGAA [Excls4-V] (puzzle: Exclusion 4) | – | – | 19.4 | 13.3 | 15.8 | – |
| AAAAUGUAAGGAUAUGGCCGGGACCCAGGGUUUGGACCCGGCUAGAAGGUACAUGAGGAUCACCCAUGUAAGAA [Excls4-VIII] (puzzle: Exclusion 4) | – | – | – | 16.1 | – | – |
| AAACAAAAGGCAGGAUAUCCUCGUCAACACCACAAGUCCACUCGGACAUGAGGAUCACCCAUGUAGGAGAAGGGCCAGAAAUAC [Bevearla] (Eterna round: R96, puzzle: Exclusion NG 2) | 88.8 | 19.6 | – | – | – | 17.5 |
